Values quoted from earlier work as cited in article PMC4365979.

Target: Rab11 (Homo sapiens) (UniProt P62491)
UniProt P62491, sequence (P62491 2-213): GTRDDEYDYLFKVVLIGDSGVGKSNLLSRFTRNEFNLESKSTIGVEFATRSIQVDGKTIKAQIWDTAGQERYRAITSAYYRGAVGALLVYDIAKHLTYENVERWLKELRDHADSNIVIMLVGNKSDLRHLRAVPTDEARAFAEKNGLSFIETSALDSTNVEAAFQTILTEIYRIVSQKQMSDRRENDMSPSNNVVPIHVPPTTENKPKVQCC

Q: For Rab11-FIP1/RCP (from UniProt Q6WKZ4), which Kd is on record?
A: The Kd was 50 nM.
